Test results reported in patent US11584938B2, “Plant EPSPS mutant containing L195P and S247G mutations and encoding gene and use thereof” (GEVOTO LLC, priority 2017, dated 2023).
Substitutions are numbered along the chain they refer to.

B1: T1: wheat EPSPS mutant, SEQ ID NO: 16, mutation S269(247)G (protein)
chain: MATSVAAPAAPAGAEEVVLQPIREISGAVQLPGSKSLSNRILLLSALSEGTTVVDNLLNSEDVHYMLEALEALGLSVEADKVAKRAVVVGCGGRFPVEKDAKEEVKLFLGNAGTAMRPLTAAVVAAGGNATYVLDGVPRMRERPIGDLVVGLQQLGADVDCFLGTNCPPVRINGKGGLPGGKVKLSGSISSQYLSSLLMAAPLALEDVEIEIIDKLISVPYVEMTLKLMEHFGVTAEHSDSWDRFYIKGGQKYKSPGNAYVEGDASSAGYFLAGAAITGGTVTVEGCGTTSLQGDVKFAEVLEMMGAKVTWTDTSVTVTGPPRQPFGRKHLKAVDVNMNKMPDVAMTLAVVALFADGPTAIRDVASWRVKETERMVAIRTELTKLGATVEEGPDYCIITPPEKLNITAIDTYDDHRMAMAFSLAACAEVPVTIRDPGCTRKTFPNYFDVLSTFVKN
B2: T2: wheat EPSPS mutant, SEQ ID NO: 18, merely containing the mutation P118(101)S; control (protein)
chain: B1 chain with P118S, G269S
B3: T3: wheat EPSPS mutant, SEQ ID NO: 20, mutations S269(247)G and P118(101)S (protein)
chain: B1 chain with P118S
B4: T4: wheat EPSPS mutant, SEQ ID NO: 22, mutation L216(195)P (protein)
chain: B1 chain with L216P, G269S

Tested on: transgenic rice plants
Test: glyphosate resistance of the EPSPS mutant in transgenic rice plants sprayed with Roundup 41% ammonium glyphosate
Assay type: in vivo, rice (Nipponbare)
Source text: A method for detecting the glyphosate resistance of G1 (SEQ ID NO: 4) provided in Example 1, G3 (SEQ ID NO: 8) provided in Example 2, G4 (SEQ ID NO: 10) provided in Example 3, the soybean EPSPS mutant G5 (SEQ ID NO: 12) provided in Example 4, T1 (SEQ ID NO: 16) provided in Example 5, T3 (SEQ ID NO: 20) provided in Example 6, T4 (SEQ ID NO: 22) provided in Example 7, T5 (SEQ ID NO: 24) provided in Example 8, the wheat EPSPS mutant T6 (SEQ ID NO: 26) provided in Example 9, R1 (SEQ ID NO: 30) provided in Example 10, R3 (SEQ ID NO: 34) provided in Example 11, R4 (SEQ ID NO: 36) provided in Example 12, R5 (SEQ ID NO: 38) provided in Example 13, and the rice EPSPS mutant R6 (SEQ ID NO: 40) provided in Example 14 in the transgenic rice is as follows:
The plasmids (containing the EPSPS mutation gene) of the monoclonal resistant bacteria of pADV5-EPSPS in Examples 1-7 were extracted by a conventional method, followed by double enzyme digestion by Pac1 and BstEII, the small fragments were collected, and then the small fragments were ligated by using T4 DNA ligase, to the pGVP1 vectors that had undergone the same double enzyme digestion, to obtain a pGVP1-EPSPS vector having a structure as shown in FIG. 23.
EHA105 (Agrobacterium tumefaciens) competent cells were transformed by the pGVP1-EPSPS vector, and single colonies were picked up to perform bacterial colony PCR detection to identify positive strains; then the positive strains were inoculated into 1 mL of YEP culture medium containing 50 μg·mL^−1 kanamycin and 50 μg·mL^−1 rifampin to propagate, and then preserved at −80° C., or used for subsequent experiment.
400 μl of bacterium containing the target gene vector preserved at −80° C. was added to a culture dish of solid culture media containing YEP+50 μg/mL rifampin+50 μg/mL kanamycin, and cultured in the dark at 28° C. for 24 hours, then this bacterium was added to an infection culture medium, and this bacterial solution was adjusted to OD=0.2 as an infection liquid.
Sterilization and pre-culturing: mature rice (Nipponbare) seeds were manually shelled, and full seeds without bacterial plaque were selected, and sterilized according to following steps: putting the seeds into a 50 ml sterile centrifuge tube, adding 70% alcohol for disinfection for 30 seconds, pouring out the alcohol, and cleaning the seeds once with sterile water; adding 10-20 ml of 2.6% sodium hypochlorite solution for soaking and sterilizing for 20 minutes, pouring out the sodium hypochlorite solution, and soaking and cleaning the seeds with sterile water for 6-7 times, 3 minutes each time.
Induction and subculturing: the seeds were put on sterile filter paper for drying, and mature embryos were put in an induction culture medium with 12 embryos in each dish; the culture dishes were sealed with a sealing film after the operation was finished, the mature embryos were cultured in the dark at 30° C. for 21-28 days, calluses were transferred into a fresh culture medium, and continuously cultured for about 7-14 days, and spherical calluses with a size of 1-2 mm were taken as infection receptors.
the calluses were inoculated into a centrifuge tube or a culture cup, the prepared Agrobacterium tumefaciens suspension liquid was added for infection for 10 minutes, wherein the calluses were shaken several times; the bacterial solution was poured out, the calluses were taken out, and placed on sterile filter paper to suck out the surface bacterial solution (about 30 minutes); and the calluses were put on sterile filter paper in a culture dish, and cultured in the dark at 25° C. for 2-3 days.
Recovery culturing: the calluses having undergone co-culturing were inoculated in a recovery culture medium, and cultured in the dark at 30° C. for 5-7 days. First round of screening: the calluses were transferred to screening culture media 1 (S1) and cultured in the dark at 30° C. for 14 days. […]

[1] = 1× dosage 1060 g/hectare glyphosate sprayed, recorded on 10th day
[2] = 2× dosage 2120 g/hectare sprayed to plants surviving 1×, recorded 10 days later
[3] = 5× dosage 5300 g/hectare sprayed to plants surviving 2×, recorded 10 days later
[4] = 20× dosage 21200 g/hectare sprayed to plants surviving 5×, recorded 10 days later

| Molecule | %++&+++ (percentage of plant having medium and high glyphosate resistance to the total number of plants observed) [1] | number of plants denoted by + (low glyphosate resistance) [1] | number of plants denoted by ++ (medium glyphosate resistance) [1] | number of plants denoted by +++ (high glyphosate resistance) [1] | number of plants denoted by − (no glyphosate resistance) [1] | glyphosate resistance / survival of the rice transformed by the EPSPS, in words (1× glyphosate dosage) | %++&+++ (percentage of plant having medium and high glyphosate resistance to the total number of plants observed) [2] | number of plants denoted by + (low glyphosate resistance) [2] | number of plants denoted by ++ (medium glyphosate resistance) [2] | number of plants denoted by +++ (high glyphosate resistance) [2] | number of plants denoted by − (no glyphosate resistance) [2] | &++&+++ (percentage of plant having medium and high glyphosate resistance to the total number of plants observed) [3] | number of plants denoted by + (low glyphosate resistance) [3] | number of plants denoted by ++ (medium glyphosate resistance) [3] | number of plants denoted by +++ (high glyphosate resistance) [3] | number of plants denoted by − (no glyphosate resistance) [3] | &++&+++ (percentage of plant having medium and high glyphosate resistance to the total number of plants observed) [4] | number of plants denoted by + (low glyphosate resistance) [4] | number of plants denoted by ++ (medium glyphosate resistance) [4] | number of plants denoted by +++ (high glyphosate resistance) [4] | also measured |
| --- | --- | --- | --- | --- | --- | --- | --- | --- | --- | --- | --- | --- | --- | --- | --- | --- | --- | --- | --- | --- | --- |
| B1 | 27.0% | 28 | 15 | 2 | 18 | obviously superior to that of the rice seedlings transformed by T0 | 1.6% | 32 | 1 | 0 | 30 | 0.0% | 2 | 0 | 0 | 61 | 0.0% | 0 | 0 | 0 | glyphosate resistance / survival of the rice transformed by the EPSPS, in words (2× glyphosate dosage): some of the transgenic rice seedlings transformed by T4, T1 and T5 still survived; glyphosate resistance / survival of the rice transformed by the EPSPS, in words (5× glyphosate dosage): some of the transgenic rice seedlings transformed by T4, T1 and T5 still survived; number of plants denoted by − (no glyphosate resistance) [4]: 63 |
| B2 | 52.8% | 13 | 15 | 13 | 12 | had relatively high resistance to glyphosate | 7.5% | 26 | 3 | 1 | 23 | 0.0% | 21 | 0 | 0 | 32 | 0.0% | 11 | 0 | 0 | glyphosate resistance / survival of the rice transformed by the EPSPS, in words (5× glyphosate dosage): none of the rice seedlings containing the wheat EPSPS mutant T2 achieved the level of medium glyphosate resistance; number of plants denoted by − (no glyphosate resistance) [4]: 42; glyphosate resistance / survival of the rice transformed by the EPSPS, in words (20× glyphosate dosage): none of the rice seedlings containing the wheat EPSPS mutant T2 achieved the level of medium glyphosate resistance |
| B3 | 71.0% | 27 | 33 | 77 | 18 | had relatively high resistance to glyphosate | 51.0% | 47 | 46 | 33 | 29 | 25.8% | 75 | 38 | 2 | 40 | 3.2% | 57 | 5 | 0 | number of plants denoted by − (no glyphosate resistance) [4]: 93 |
| B4 | 35.6% | 30 | 18 | 8 | 7 | obviously superior to that of the rice seedlings transformed by T0 | 18.2% | 40 | 0 | 4 | 34 | 0.0% | 12 | 0 | 0 | 66 | 0.0% | 0 | 0 | 0 | glyphosate resistance / survival of the rice transformed by the EPSPS, in words (2× glyphosate dosage): some of the transgenic rice seedlings transformed by T4, T1 and T5 still survived; glyphosate resistance / survival of the rice transformed by the EPSPS, in words (5× glyphosate dosage): some of the transgenic rice seedlings transformed by T4, T1 and T5 still survived; number of plants denoted by − (no glyphosate resistance) [4]: 78 |
